We go through one molecule from PMC4107794 (The Journal of Cell Biology, 2014).

For one assay, the target named is GST-Rad18 (UniProt Q9NS91 1-495). Description: pull-down.
Another assay has as its target FLAG-Rad18 (UniProt Q9NS91 1-495). Description: pull-down.

Sequence of GST-Rad18 (Q9NS91 whole entry): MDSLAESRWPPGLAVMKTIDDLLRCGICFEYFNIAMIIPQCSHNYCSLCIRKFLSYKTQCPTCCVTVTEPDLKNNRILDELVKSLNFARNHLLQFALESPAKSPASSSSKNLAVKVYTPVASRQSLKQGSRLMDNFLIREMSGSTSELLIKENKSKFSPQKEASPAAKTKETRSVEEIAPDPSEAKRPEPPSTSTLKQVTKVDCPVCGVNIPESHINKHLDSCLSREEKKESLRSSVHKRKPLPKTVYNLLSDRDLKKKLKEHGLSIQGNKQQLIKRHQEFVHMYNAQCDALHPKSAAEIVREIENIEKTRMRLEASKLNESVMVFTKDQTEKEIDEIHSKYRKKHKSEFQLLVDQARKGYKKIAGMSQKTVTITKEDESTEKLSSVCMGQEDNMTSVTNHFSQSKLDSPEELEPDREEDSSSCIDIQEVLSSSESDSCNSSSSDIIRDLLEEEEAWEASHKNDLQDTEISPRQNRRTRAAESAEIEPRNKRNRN
Sequence of FLAG-Rad18 (Q9NS91 whole entry): as above

B1: FLAG-SHPRH (natural protein)
chain: MSSRRKRAPPVRVDEEKRQQLHWNMHEDRRNEPIIISDDDEQPCPGSDTSSAHYIILSDSLKEEVAHRDKKRCSKVVSFSKPIEKEETVGIFSPLSVKLNIVISPYHFDNSWKAFLGELTLQLLPAQSLIENFSERSITLMSSESSNQFLIYVHSKGEDVEKQKKEPMSICDKGILVESSFSGEMLEDLGWLQKKRRIKLYQKPEGNHIIKVGIYLLEAGLAKLDFLSDANSRMKKFNQLMKKVMEKLHNSIIPDVLEEDEDDPESEPEGQDIDELYHFVKQTHQQETQSIQVDVQHPALIPVLRPYQREAVNWMLQQECFRSSPATESALHFLWREIVTSEGLKLYYNPYTGCIIREYPNSGPQLLGGILADEMGLGKTVEVLALILTHTRQDVKQDALTLPEGKVVNYFIPSHYFGGKLKKTEIQNIEFEPKEKVQCPPTRVMILTAVKEMNGKKGVSILSIYKYVSSIYRYDVQRNRSLLKRMLKCLIFEGLVKQIKGHGFSGTFTLGKNYKEEDICDKTKKQAVGSPRKIQKETRKSGNKDTDSEYLPSDTSDDDDDPYYYYYKSRRNRSKLRKKLVPSTKKGKSQPFINPDSQGHCPATSDSGITDVAMSKSTCISEFNQEHETEDCAESLNHADSDVPPSNTMSPFNTSDYRFECICGELDQIDRKPRVQCLKCHLWQHAKCVNYDEKNLKIKPFYCPHCLVAMEPVSTRATLIISPSSICHQWVDEINRHVRSSSLRVLVYQGVKKDGFLQPHFLAEQDIVIITYDVLRSELNYVDIPHSNSEDGRRLRNQKRYMAIPSPLVAVEWWRICLDEAQMVECPTVKAAEMAQRLSGINRWCISGTPVQRGLEDLFGLVVFLGIEPYCVKHWWVRLLYRPYCKKNPQHLYSFIAKILWRSAKKDVIDQIQIPPQTEEIHWLHFSPVERHFYHRQHEVCCQDVVVKLRKISDWALKLSSLDRRTVTSILYPLLRLRQACCHPQAVRGEFLPLQKSTMTMEELLTSLQKKCGTECEEAHRQLVCALNGLAGIHIIKGEYALAAELYREVLRSSEEHKGKLKTDSLQRLHATHNLMELLIARHPGIPPTLRDGRLEEEAKQLREHYMSKCNTEVAEAQQALYPVQQTIHELQRKIHSNSPWWLNVIHRAIEFTIDEELVQRVRNEITSNYKQQTGKLSMSEKFRDCRGLQFLLTTQMEELNKCQKLVREAVKNLEGPPSRNVIESATVCHLRPARLPLNCCVFCKADELFTEYESKLFSNTVKGQTAIFEEMIEDEEGLVDDRAPTTTRGLWAISETERSMKAILSFAKSHRFDVEFVDEGSTSMDLFEAWKKEYKLLHEYWMALRNRVSAVDELAMATERLRVRDPREPKPNPPVLHIIEPHEVEQNRIKLLNDKAVATSQLQKKLGQLLYLTNLEKSQDKTSGGVNPEPCPICARQLGKQWAVLTCGHCFCNECISIIIEQYSVGSHRSSIKCAICRQTTSHKEISYVFTSEKANQEEDIPVKGSHSTKVEAVVRTLMKIQLRDPGAKALVFSTWQDVLDIISKALTDNNMEFAQISRVKTFQENLSAFKRDPQINILLLPLHTGSNGLTIIEATHVLLVEPILNPAHELQAIGRVHRIGQTKPTIVHRFLIKATIEERMQAMLKTAERSHTNSSAKHSEASVLTVADLADLFTKETEELE
As to B1, the binding result with GST-Rad18 and in the assay with FLAG-Rad18 was “binds” in each case.
